This data set deals with the molecule itself. Kind of data set: cryo-EM structure; purified MmIR dimer fraction (20 mM Hepes-Na pH 7.4, 150 mM NaCl, 0.03% DDM) mixed with synthesized S597-component-2 (S597-N20) at 1:4 (m:m), incubated half an hour, 4 °C, concentrated to 6 mg/ml.

B1: full-length mouse insulin receptor, short isoform, with kinase-dead mutation D1122N and mutation Y962F (receptor, UniProt P15208 28-1372, looked up)
chain: HLYPGEVCPGMDIRNNLTRLHELENCSVIEGHLQILLMFKTRPEDFRDLSFPKLIMITDYLLLFRVYGLESLKDLFPNLTVIRGSRLFFNYALVIFEMVHLKELGLYNLMNITRGSVRIEKNNELCYLATIDWSRILDSVEDNYIVLNKDDNEECGDVCPGTAKGKTNCPATVINGQFVERCWTHSHCQKVCPTICKSHGCTAEGLCCHKECLGNCSEPDDPTKCVACRNFYLDGQCVETCPPPYYHFQDWRCVNFSFCQDLHFKCRNSRKPGCHQYVIHNNKCIPECPSGYTMNSSNLMCTPCLGPCPKVCQILEGEKTIDSVTSAQELRGCTVINGSLIINIRGGNNLAAELEANLGLIEEISGFLKIRRSYALVSLSFFRKLHLIRGETLEIGNYSFYALDNQNLRQLWDWSKHNLTITQGKLFFHYNPKLCLSEIHKMEEVSGTKGRQERNDIALKTNGDQASCENELLKFSFIRTSFDKILLRWEPYWPPDFRDLLGFMLFYKEAPYQNVTEFDGQDACGSNSWTVVDIDPPQRSNDPKSQTPSHPGWLMRGLKPWTQYAIFVKTLVTFSDERRTYGAKSDIIYVQTDATNPSVPLDPISVSNSSSQIILKWKPPSDPNGNITHYLVYWERQAEDSELFELDYCLKGLKLPSRTWSPPFESDDSQKHNQSEYDDSASECCSCPKTDSQILKELEESSFRKTFEDYLHNVVFVPRPSRKRRSLEEVGNVTATTLTLPDFPNVSSTIVPTSQEEHRPFEKVVNKESLVISGLRHFTGYRIELQACNQDSPDERCSVAAYVSARTMPEAKADDIVGPVTHEIFENNVVHLMWQEPKEPNGLIVLYEVSYRRYGDEELHLCVSRKHFALERGCRLRGLSPGNYSVRVRATSLAGNGSWTEPTYFYVTDYLDVPSNIAKIIIGPLIFVFLFSVVIGSIYLFLRKRQPDGPMGPLYASSNPEFLSASDVFPSSVYVPDEWEVPREKITLLRELGQGSFGMVYEGNAKDIIKGEAETRVAVKTVNESASLRERIEFLNEASVMKGFTCHHVVRLLGVVSKGQPTLVVMELMAHGDLKSHLRSLRPDAENNPGRPPPTLQEMIQMTAEIADGMAYLNAKKFVHRNLAARNCMVAHDFTVKIGDFGMTRDIYETDYYRKGGKGLLPVRWMSPESLKDGVFTASSDMWSFGVVLWEITSLAEQPYQGLSNEQVLKFVMDGGYLDPPDNCPERLTDLMRMCWQFNPKMRPTFLEIVNLLKDDLHPSFPEVSFFYSEENKAPESEELEMEFEDMENVPLDRSSHCQREEAGGREGGSSLSIKRTYDEHIPYTHMNGGKKNGRVLTLPRSNPS
notes: insulin receptor, mouse, short isoform (A isoform), full length; Disulfide-linked dimer; The proreceptor is written as one chain; An HRV-3C site lay between the receptor and Tsi3; also called MmIR; IR; source: FreeStyle 293-F cells (BacMam), purified (DDM extraction, Tse3 resin, HRV-3C elution, Superose 6; dimer fraction); not shown: Tsi3, C-terminal, cleaved
With B1, the binding result is “binds”.

These data come from publication PMC9508239 (Nature Communications, 2022).
